# What was measured:
# [1] = target: HLA-A*0201 class I monomer of the iTopia Epitope Discovery System; test: iTopia affinity assay (ED50)
# [2] = target: HLA-A*0201 class I monomer of the iTopia Epitope Discovery System; test: iTopia off-rate assay
fold reduction of ED50 vs native peptide [1] [fold],fold increase of halftime of dissociation vs native peptide [2] [fold],fold reduction of affinity vs native peptide [1] [fold],Substance
> 4,2,–,PRAME425-433 S425F L433Nle analog (peptide)
–,–,3,"PRAME425-433 analog, Nva at P2 (peptide)"
